Assay [1] addresses PscA, 82-kDa core subunit of the green sulfur bacterial reaction center (GsbRC) (Chlorobaculum tepidum TLS). Nature of the assay: cryo-EM structure.
The target of assay [2] is T1, Fenna–Matthews–Olson (FMO) protein (Chlorobaculum tepidum TLS, UniProt Q46393 1-366).
T1 sequence (looked up): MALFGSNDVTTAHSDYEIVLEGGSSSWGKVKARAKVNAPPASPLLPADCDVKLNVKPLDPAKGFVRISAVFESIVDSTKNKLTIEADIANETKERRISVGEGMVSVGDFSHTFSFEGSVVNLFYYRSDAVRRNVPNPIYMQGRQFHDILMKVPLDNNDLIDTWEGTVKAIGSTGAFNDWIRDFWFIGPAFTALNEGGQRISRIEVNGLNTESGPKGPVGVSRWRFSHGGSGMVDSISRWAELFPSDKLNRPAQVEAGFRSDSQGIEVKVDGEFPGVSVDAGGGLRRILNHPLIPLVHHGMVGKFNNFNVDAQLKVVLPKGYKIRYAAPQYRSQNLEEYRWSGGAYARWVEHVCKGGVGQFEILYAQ
The assay is described as follows: cryo-EM structure.

Assay [3] addresses reaction center of the green sulfur bacterium Chlorobaculum tepidum (GsbRC) (Chlorobaculum tepidum TLS) (UniProt O07091).

Several values for one entry are separate records, joined by “and”; a condition that tells them apart may be missing. Equal entries are not always repeated.

Turning to “PscA, 82-kDa core subunit of the green sulfur bacterial reaction center (GsbRC) (natural protein)”, the stoichiometry N in assay [1] came out at 2.

B1: PscD, 17-kDa protein of GsbRC (natural protein, Chlorobaculum tepidum TLS, UniProt Q8KEP5 1-143, looked up)
chain: MQPQLSRPQTASNQVRKAVSGPWSGNAVHKAEKYFITSAKRDRDGKLQIELVPASGRRKLSPTPEMIRRLIDGEIEIYILTTQPDIAIDMNKEIIDMENRYVIDFDKRGVKWTMREIPVFYHEGKGLCVELHNKIYTLDQFFK
Turning to B1, in assay [2], the binding result is reported as “binds”.

B2: Fenna–Matthews–Olson (FMO) protein (natural protein)
chain: MALFGSNDVTTAHSDYEIVLEGGSSSWGKVKARAKVNAPPASPLLPADCDVKLNVKPLDPAKGFVRISAVFESIVDSTKNKLTIEADIANETKERRISVGEGMVSVGDFSHTFSFEGSVVNLFYYRSDAVRRNVPNPIYMQGRQFHDILMKVPLDNNDLIDTWEGTVKAIGSTGAFNDWIRDFWFIGPAFTALNEGGQRISRIEVNGLNTESGPKGPVGVSRWRFSHGGSGMVDSISRWAELFPSDKLNRPAQVEAGFRSDSQGIEVKVDGEFPGVSVDAGGGLRRILNHPLIPLVHHGMVGKFNNFNVDAQLKVVLPKGYKIRYAAPQYRSQNLEEYRWSGGAYARWVEHVCKGGVGQFEILYAQ
As for B2, in assay [3], the stoichiometry N is 2 and 1.

Broadly, the stoichiometry N is a count of units in the complex or per binding partner.

The values are drawn from PMC9945994 (Proceedings of the National Academy of Sciences of the …, 2023).
